Reference: patent US20180105569A1 (INDIANA UNIVERSITY RESEARCH AND TECHNOLOGY, published 2018)
Read-outs that look alike come from different tables or passages of the source. Numbered stars: 1 amine (or outer) side, 2 acyl side, 3 side chain; on linkers, the order of the positions; unused ones are H or OH. Square brackets hold non-standard residues; d marks the D form. Side chains are listed from the residue outwards. Ends that are not written are not given here. * marks the point of attachment. 4‑HPA = 4-hydroxyphenylacetic acid, O=C(Cc1ccc(O[*:3])cc1)[*:2]; C16 acyl = C16 fatty acyl group bound via a gamma-Glu spacer; γGlu = O=C(O)[C@H](CCC(=O)[*:2])N[*:1]; Desaminotyrosyl = O=C(CCc1ccc(O)cc1)*; Palmitoyl = CCCCCCCCCCCCCCCC(=O)*

Legend:
Assay in all cases: cell-based or functional assay
[1] = target: T1, GLP-1 receptor (UniProt P43220 24-463, limits assumed)
[2] = target: T2, glucagon receptor (UniProt P47871 26-477, limits assumed)
T2 sequence (P47871 26-477 limits assumed): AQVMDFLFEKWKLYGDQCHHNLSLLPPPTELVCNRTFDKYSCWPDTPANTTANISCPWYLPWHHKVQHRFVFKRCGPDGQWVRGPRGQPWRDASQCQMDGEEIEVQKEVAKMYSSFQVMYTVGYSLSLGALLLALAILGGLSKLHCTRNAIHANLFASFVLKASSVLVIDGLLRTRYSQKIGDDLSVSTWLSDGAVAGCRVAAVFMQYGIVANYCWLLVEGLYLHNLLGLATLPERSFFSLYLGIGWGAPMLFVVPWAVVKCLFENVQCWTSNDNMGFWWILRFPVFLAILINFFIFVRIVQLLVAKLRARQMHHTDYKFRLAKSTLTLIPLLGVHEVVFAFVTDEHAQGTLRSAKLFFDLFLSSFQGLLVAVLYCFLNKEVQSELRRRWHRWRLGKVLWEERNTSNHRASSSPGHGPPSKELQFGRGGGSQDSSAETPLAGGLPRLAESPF

[3] = target: T3, GIP receptor (UniProt P48546 22-466, limits assumed)
T3 sequence (looked up): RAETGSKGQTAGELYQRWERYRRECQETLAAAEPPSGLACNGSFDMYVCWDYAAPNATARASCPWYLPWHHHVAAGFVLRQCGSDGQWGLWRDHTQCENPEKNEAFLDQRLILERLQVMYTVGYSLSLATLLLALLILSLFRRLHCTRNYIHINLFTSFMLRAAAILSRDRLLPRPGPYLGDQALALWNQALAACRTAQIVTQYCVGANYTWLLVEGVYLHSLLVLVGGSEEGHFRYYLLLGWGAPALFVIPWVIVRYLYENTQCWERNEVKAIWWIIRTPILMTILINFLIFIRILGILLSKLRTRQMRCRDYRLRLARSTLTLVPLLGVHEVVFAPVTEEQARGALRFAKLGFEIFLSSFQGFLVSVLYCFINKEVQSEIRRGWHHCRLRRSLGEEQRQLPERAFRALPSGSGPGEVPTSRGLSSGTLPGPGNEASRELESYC

[4] = target: T1, GLP-1 receptor; remark: listed apart in the source
[5] = target: T3, GIP receptor; remark: listed apart in the source
[6] = target: T2, glucagon receptor; remark: listed apart in the source

B1: peptide of SEQ ID NO: 148 (peptide)
peptide: Ac-[dH]AEGTFTSDK([γGlu-Palmitoyl])SKYLDERAAQDFVQWLLEGGPSSGAPPPS-NH2
SMILES: CCCCCCCCCCCCCCCC(=O)N[C@@H](CCC(=O)NCCCC[C@H](NC(=O)[C@H](CC(=O)O)NC(=O)[C@H](CO)NC(=O)[C@@H](NC(=O)[C@H](Cc1ccccc1)NC(=O)[C@@H](NC(=O)CNC(=O)[C@H](CCC(=O)O)NC(=O)[C@H](C)NC(=O)[C@@H](Cc1c[nH]cn1)NC(C)=O)[C@@H](C)O)[C@@H](C)O)C(=O)N[C@@H](CO)C(=O)N[C@@H](CCCCN)C(=O)N[C@@H](Cc1ccc(O)cc1)C(=O)N[C@@H](CC(C)C)C(=O)N[C@@H](CC(=O)O)C(=O)N[C@@H](CCC(=O)O)C(=O)N[C@@H](CCCNC(=N)N)C(=O)N[C@@H](C)C(=O)N[C@@H](C)C(=O)N[C@@H](CCC(N)=O)C(=O)N[C@@H](CC(=O)O)C(=O)N[C@@H](Cc1ccccc1)C(=O)N[C@H](C(=O)N[C@@H](CCC(N)=O)C(=O)N[C@@H](Cc1c[nH]c2ccccc12)C(=O)N[C@@H](CC(C)C)C(=O)N[C@@H](CC(C)C)C(=O)N[C@@H](CCC(=O)O)C(=O)NCC(=O)NCC(=O)N1CCC[C@H]1C(=O)N[C@@H](CO)C(=O)N[C@@H](CO)C(=O)NCC(=O)N[C@@H](C)C(=O)N1CCC[C@H]1C(=O)N1CCC[C@H]1C(=O)N1CCC[C@H]1C(=O)N[C@@H](CO)C(N)=O)C(C)C)C(=O)O
For B1, the “EC50 at GLP-1 Receptor (cAMP luciferase reporter, HEK293)” value (“EC50 at GLP-1 Receptor” below) [1] was 0.002 nM and the “EC50 at Glucagon Receptor (cAMP luciferase reporter, HEK293)” value (“EC50 at Glucagon Receptor” below) [2] was 0.178 nM.

[4‑HPA]AQGTFTSDK([γGlu-C16 acyl])SKYLDERAAQDFVQWLLEGGPSSGAPPPS-NH2 [peptide of SEQ ID NO: 156] was tested, and the “EC50 at GLP-1 Receptor” value [1] was 0.002 nM, the “EC50 at GIP Receptor (cAMP luciferase reporter, HEK293)” value (shortened to “EC50 at GIP Receptor”) [3] was 0.042 nM and the “EC50 at Glucagon Receptor” value [2] was 0.011 nM.

In the case of Ac-[dY]AQGTFTSDK([γGlu-Palmitoyl])SKYLDERAAQDFVQWLLDAGPSSGAPPPS-NH2 [peptide of SEQ ID NO: 143], the “EC50 at GLP-1 Receptor” value [4] is reported as 0.003 nM, the “EC50 at GIP Receptor” value [5] is reported as 0.003 nM and the “EC50 at Glucagon Receptor” value [6] is reported as 0.004 nM.

B2: peptide of SEQ ID NO: 146 (peptide)
peptide: Ac-[dY]AQGTFTSDK([γGlu-Palmitoyl])SKYLDERAAQDFVQWLLEAGPSSGAPPPS-NH2
SMILES: CCCCCCCCCCCCCCCC(=O)N[C@@H](CCC(=O)NCCCC[C@H](NC(=O)[C@H](CC(=O)O)NC(=O)[C@H](CO)NC(=O)[C@@H](NC(=O)[C@H](Cc1ccccc1)NC(=O)[C@@H](NC(=O)CNC(=O)[C@H](CCC(N)=O)NC(=O)[C@H](C)NC(=O)[C@@H](Cc1ccc(O)cc1)NC(C)=O)[C@@H](C)O)[C@@H](C)O)C(=O)N[C@@H](CO)C(=O)N[C@@H](CCCCN)C(=O)N[C@@H](Cc1ccc(O)cc1)C(=O)N[C@@H](CC(C)C)C(=O)N[C@@H](CC(=O)O)C(=O)N[C@@H](CCC(=O)O)C(=O)N[C@@H](CCCNC(=N)N)C(=O)N[C@@H](C)C(=O)N[C@@H](C)C(=O)N[C@@H](CCC(N)=O)C(=O)N[C@@H](CC(=O)O)C(=O)N[C@@H](Cc1ccccc1)C(=O)N[C@H](C(=O)N[C@@H](CCC(N)=O)C(=O)N[C@@H](Cc1c[nH]c2ccccc12)C(=O)N[C@@H](CC(C)C)C(=O)N[C@@H](CC(C)C)C(=O)N[C@@H](CCC(=O)O)C(=O)N[C@@H](C)C(=O)NCC(=O)N1CCC[C@H]1C(=O)N[C@@H](CO)C(=O)N[C@@H](CO)C(=O)NCC(=O)N[C@@H](C)C(=O)N1CCC[C@H]1C(=O)N1CCC[C@H]1C(=O)N1CCC[C@H]1C(=O)N[C@@H](CO)C(N)=O)C(C)C)C(=O)O
B2 was tested, and the “EC50 at GLP-1 Receptor” value [4] was 0.007 nM, the “EC50 at GIP Receptor” value [5] was 0.006 nM and the “EC50 at Glucagon Receptor” value [6] was 0.009 nM.

In the case of Ac-[dH]AQGTFTSDYSKYLDERAAQDFVQWLLEGGPSSGAPPPSK([γGlu-γGlu-Palmitoyl])G-NH2 [peptide of SEQ ID NO: 152], the “EC50 at GLP-1 Receptor” value [4] is reported as 0.003 nM, the “EC50 at GIP Receptor” value [5] is reported as 0.017 nM and the “EC50 at Glucagon Receptor” value [6] is reported as 0.003 nM.

For Ac-[dY]AQGTFTSDK([γGlu-Palmitoyl])SKYLDERAAQDFVQWLLDLGPSSGAPPPS-NH2 [peptide of SEQ ID NO: 153], the “EC50 at GLP-1 Receptor” value [4] was 0.017 nM, the “EC50 at GIP Receptor” value [5] was 0.018 nM and the “EC50 at Glucagon Receptor” value [6] was 0.021 nM.

For Ac-[dY]ALGTFTSDK([γGlu-Palmitoyl])SKYLDERAAQDFVQWLLEGGPSSGAPPPS-NH2 [peptide of SEQ ID NO: 142], the “EC50 at GLP-1 Receptor” value [1] was 0.005 nM, the “EC50 at GIP Receptor” value [3] was 0.002 nM and the “EC50 at Glucagon Receptor” value [2] was 0.103 nM.

B3: peptide of SEQ ID NO: 144 (peptide)
peptide: Ac-[dY]AEGTFTSDK([γGlu-Palmitoyl])SKYLDERAAQDFVQWLLEAGPSSGAPPPS-NH2
SMILES: CCCCCCCCCCCCCCCC(=O)N[C@@H](CCC(=O)NCCCC[C@H](NC(=O)[C@H](CC(=O)O)NC(=O)[C@H](CO)NC(=O)[C@@H](NC(=O)[C@H](Cc1ccccc1)NC(=O)[C@@H](NC(=O)CNC(=O)[C@H](CCC(=O)O)NC(=O)[C@H](C)NC(=O)[C@@H](Cc1ccc(O)cc1)NC(C)=O)[C@@H](C)O)[C@@H](C)O)C(=O)N[C@@H](CO)C(=O)N[C@@H](CCCCN)C(=O)N[C@@H](Cc1ccc(O)cc1)C(=O)N[C@@H](CC(C)C)C(=O)N[C@@H](CC(=O)O)C(=O)N[C@@H](CCC(=O)O)C(=O)N[C@@H](CCCNC(=N)N)C(=O)N[C@@H](C)C(=O)N[C@@H](C)C(=O)N[C@@H](CCC(N)=O)C(=O)N[C@@H](CC(=O)O)C(=O)N[C@@H](Cc1ccccc1)C(=O)N[C@H](C(=O)N[C@@H](CCC(N)=O)C(=O)N[C@@H](Cc1c[nH]c2ccccc12)C(=O)N[C@@H](CC(C)C)C(=O)N[C@@H](CC(C)C)C(=O)N[C@@H](CCC(=O)O)C(=O)N[C@@H](C)C(=O)NCC(=O)N1CCC[C@H]1C(=O)N[C@@H](CO)C(=O)N[C@@H](CO)C(=O)NCC(=O)N[C@@H](C)C(=O)N1CCC[C@H]1C(=O)N1CCC[C@H]1C(=O)N1CCC[C@H]1C(=O)N[C@@H](CO)C(N)=O)C(C)C)C(=O)O
For B3, the “EC50 at GLP-1 Receptor” value [1] was 0.017 nM, the “EC50 at GIP Receptor” value [3] was 0.003 nM and the “EC50 at Glucagon Receptor” value [2] was 1.3 nM.

B4: peptide of SEQ ID NO: 145 (peptide)
peptide: XAEGTFTSDKSKYLDERAAQDFVQWLLEGGPSSGAPPPS
modifications: position 1 Des-NH2-Tyr (desamino L-Tyr); position 2 Ala; C-terminal amide; other non-coded or acylated residues as in the sequence listing
In the case of B4, the “EC50 at GIP Receptor” value [3] is reported as 0.003 nM and the “EC50 at Glucagon Receptor” value [2] is reported as 3.73 nM.

With Ac-[dY]AQGTFTSDYSKYLDERAAQDFVQWLLEGGPSSGAPPPSK([γGlu-γGlu-Palmitoyl])G-NH2 [peptide of SEQ ID NO: 149] the “EC50 at GLP-1 Receptor” value [1] was 0.002 nM, the “EC50 at GIP Receptor” value [3] was 0.008 nM and the “EC50 at Glucagon Receptor” value [2] was 0.012 nM.

For Ac-[dF]AQGTFTSDK([γGlu-Palmitoyl])SKYLDERAAQDFVQWLLEGGPSSGAPPPS-NH2 [peptide of SEQ ID NO: 150], the “EC50 at GLP-1 Receptor” value [1] was 0.002 nM, the “EC50 at GIP Receptor” value [3] was 0.011 nM and the “EC50 at Glucagon Receptor” value [2] was 0.014 nM.

In the case of Ac-[dH]AQGTFTSDK([γGlu-Palmitoyl])SKYLDERAAQDFVQWLLEAGPSSGAPPPS-NH2 [peptide of SEQ ID NO: 151], the “EC50 at GLP-1 Receptor” value [1] is reported as 0.002 nM, the “EC50 at GIP Receptor” value [3] is reported as 0.014 nM and the “EC50 at Glucagon Receptor” value [2] is reported as 0.003 nM.

Ac-[dH]AEGTFTSDK([γGlu-Palmitoyl])SKYLDERAAQDFVQWLLEAGPSSGAPPPS-NH2 [peptide of SEQ ID NO: 154] was tested, and the “EC50 at GLP-1 Receptor” value [1] was 0.004 nM, the “EC50 at GIP Receptor” value [3] was 0.024 nM and the “EC50 at Glucagon Receptor” value [2] was 0.847 nM.

For [Desaminotyrosyl]AQGTFTSDYSKYLDERAAQDFVQWLLEGGPSSGAPPPSK(Palmitoyl)G-NH2 [peptide of SEQ ID NO: 157], the “EC50 at GLP-1 Receptor” value [1] was 0.013 nM, the “EC50 at GIP Receptor” value [3] was 0.059 nM and the “EC50 at Glucagon Receptor” value [2] was 0.047 nM.

For Ac-YA[dQ]GTFTSDK([γGlu-Palmitoyl])SKYLDERAAQDFVQWLLEGGPSSGAPPPS-NH2 [peptide of SEQ ID NO: 158], the “EC50 at GIP Receptor” value [3] was 0.069 nM.

For Ac-[dY]AQGTFTSDYSKYLDERAAQDFVQWLLEAGPSSGAPPPSK([γGlu-γGlu-Palmitoyl])G-NH2 [peptide of SEQ ID NO: 159], the “EC50 at GLP-1 Receptor” value [1] was 0.009 nM, the “EC50 at GIP Receptor” value [3] was 0.08 nM and the “EC50 at Glucagon Receptor” value [2] was 0.04 nM.

With [Desaminotyrosyl]AQGTFTSDYSKYLDERAAQDFVQWLLEGGPSSGAPPPSK([γGlu-γGlu-Palmitoyl])G-NH2 [peptide of SEQ ID NO: 160] the “EC50 at GLP-1 Receptor” value [1] was 0.022 nM, the “EC50 at GIP Receptor” value [3] was 0.086 nM and the “EC50 at Glucagon Receptor” value [2] was 0.049 nM.
